Measured values published in patent US20140271661A1 (published 2014).

Biological target: human antithrombin β complexed with heparin (human ATβH) (human, UniProt P01008 33-464, lacks glycosylation at Asn135 (β glyco-isoform); complexed with heparin)
Experiment: Biacore

Sequence of human antithrombin β complexed with heparin (human ATβH) (P01008 33-464, one chain of several): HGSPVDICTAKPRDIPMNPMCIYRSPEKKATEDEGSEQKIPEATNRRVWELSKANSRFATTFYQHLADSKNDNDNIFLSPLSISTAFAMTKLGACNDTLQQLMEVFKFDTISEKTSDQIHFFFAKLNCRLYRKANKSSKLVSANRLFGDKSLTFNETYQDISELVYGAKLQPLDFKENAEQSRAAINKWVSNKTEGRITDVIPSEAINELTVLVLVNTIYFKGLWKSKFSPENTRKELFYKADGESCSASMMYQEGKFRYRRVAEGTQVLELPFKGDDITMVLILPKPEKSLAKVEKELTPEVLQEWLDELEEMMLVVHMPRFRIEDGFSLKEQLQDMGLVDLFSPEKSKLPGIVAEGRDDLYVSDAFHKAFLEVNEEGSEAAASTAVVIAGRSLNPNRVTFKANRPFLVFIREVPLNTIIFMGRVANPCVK

Row | Binder | Kd [nM]
1 | TPP2009 hIgG1 (antibody, V domains shown) VH: EVQLLESGGGLVQPGGSLRLSCAASGFTFSAYRMGWVRQAPGKGLEWVSRIYSSGGRTRYADSVKGRFTISRDNSKNTLYLQMNSLRAEDTAVYYCAREKASDLSGSFSEALDYWGQGTLVTVSS VL: AQSVLTQDPAVSVALGQTVRITCQGDSLRSYYASWYQQKPGQAPVLVIYGKNNRPSGIPDRFSGSSSGNTASLTITGAQAEDEADYYCNSRDSSGNHLVFGGGTKLTVLG | 11.9
2 | TPP-2016 hIgG (antibody, V domains shown) VH: EVQLLESGGGLVQPGGSLRLSCAASGFTFSKYRMDWVRQAPGKGLEWVSRIGPSGGKTTYADSVKGRFTISRDNSKNTLYLQMNSLRAEDTAVYYCAREKTSDLSGSYSEALDYWGQGTLVTVSS VL: DIQMTQSPATLSVSPGERATLSCRASQNINRNLAWYQQKPGRAPRLLIHTASTRAPGVPVRITGSGSGTEFTLTISSLEPEDFAVYFCQQYASPPRTFGQGTKVEIKR | 18.9
3 | TPP-2019 hIgG (antibody, V domains shown) VH: EVQLLESGGGLVQPGGSLRLSCAASGFTFSRYAMYWVRQAPGKGLEWVSRISPSGGKTHYADSVKGRFTISRDNSKNTLYLQMNSLRAEDTAVYYCARLSQTGYYPHYHYYGMDVWGQGTTVTVSS VL: DIQMTQSPATLSLSPGERATLSCRASQRVSSSYLTWYQQKPGQAPRLLIYGASSRATGIPDRFSGSGSGTDFTLTISRLEPEDFAVYYCQQYDSTPPLTFGGGTKVEIKR | 17.2
